# B1: TPR t1 (parent)
# chain: GACCAAUCUGCCCUCAGAGCUCGAGAACAUCUUCGGAUGCAGAGGAGGCAGGCUUCGGUGGCGCGAUAGCGCCAACGUCCUCAACCUCCAAUGCAUCCCACCACAUGAUGAUGCCUGAAGAGCCUUGGUUUUUUG
# Variants of: B1
# Experiment: polymerase ribozyme fitness, log enrichment relative to wild type (log ratio); higher = more active; in vitro selection for triplet polymerase activity
# How it was run: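 After PCR construction and transcription, each subunit's mutant library from a heterodimeric triplet polymerase ribozyme was annealed with a biotinylated primer, the partner subunit and triplets. Incubation was frozen, at −7 °C, and extended constructs were gel-excised, bound to streptavidin beads and amplified by RT-PCR, in one selection round done in triplicate. Fitness is the logarithm of a genotype's enrichment divided by that of the wild type, from inverse-variance-weighted replicate averages of Illumina-sequenced inputs and outputs. The base of the logarithm is 2, and genotypes needed ≥10 input reads and ≥1 read per output.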
row,Variant,polymerase ribozyme fitness (log ratio)
1,A2C U112A,-0.421
2,A2G C12U A66G C79A G122A,-2.62
3,A2C G127U,-1.27
4,A2U A27G G61A C104A U112C G122U,-2.93
5,A2U G51U U59G A84C,-4.9
6,A2U C40U C115A A121U,0.0194
7,A2U G10U C115U,-3.43
8,A2C C4G G39C G69U C102U,-2.39
9,A2C C4A A5C U125G,-0.48
10,A2G C13A A68U C85A A103U G117U,-6.8
11,A2U C3G G58A,-2.99
12,A2U C73A U130A U133G,-2.47
13,A2G G117A,-1.6
14,A2U A16U C72G C86U,-4.45
15,A2U C12U,-2.36
16,A2U A18U C124A U129G,-2.31
17,A2G C40G G45U G52A C124G,-2.61
18,A2U C40A G61U C73A U92A C104U,-5.16
19,A2U C123A,-1.63
20,A2C U96A,-3.03
21,A2G A111C U112G G113U U116A C124A,-2.74
22,A2G G17C C56U,-4.71
23,A2G C11A G71U A90U U130A U133G,-2.92
24,A2G G44A,-0.766

row,Variant,polymerase ribozyme fitness (log ratio)
1,A2G C49U C62A C94G,-4.35
2,A2G C88A G93A C115A G117U,-6.36
3,A2U G110C U131A,-5.15
4,A2U G36C C72G,-4.64
5,A2C C11U,-2.65
6,A2C A41C,-2.75
7,A2U G57C,-2.3
8,A2C U38A C56A G113C U129A,-4.44
9,A2U G36C C53U,-3.54
10,A2G G61A C102U U109A,-5.41
11,A2C C11U C15U U55G A90G A121G,-0.451
12,A2G C3A G39U U59A A105C U106A C123G,-2.32
13,A2U G10A,-2.85
14,A2G U7C G10U G52C,-1.99
15,A2U G71A,-2.72
16,A2C C72U G117A,-3.25
17,A2C C13U G77A C123U,0.26
18,A2U C73A U78A U87C C124A U126A,-1.46
19,A2U A6C C76A C115U U126A U129C U130A U133A,-4.89
20,A2G C73A A90G A105G,-2.1
21,A2U C13U,-1.36
22,A2G G77U C82G,-0.807
23,A2U U9A C11G A24U G36U C56G C123G,-7.43
24,A2U C8A A74U A95U G110A G127U U130C,-3.91

row,Variant,polymerase ribozyme fitness (log ratio)
1,A2C G120U,-0.948
2,A2C G120C,-0.618
3,A2U C56U,-2.27
4,A2G C62U U78A A103C,-5.9
5,A2G C8U,0.157
6,A2U U106A G128U U131C,-1.21
7,A2C G60C,-1.65
8,A2C C4G C114A,-3.53
9,A2G U14G C70A C101G G120U G127C,-3.71
10,A2U G42C C72A,-3.5
11,A2C G71C C99A A105U A111G,-6.44
12,A2U U87G U96G,-3.12
13,A2U U9A A26C G60A G117U,-6.53
14,A2C C11U G61A G120A,-0.476
15,A2U C56A G63A C104A U112A,-5.33
16,A2U G36C C82U G113U G135U,-5.19
17,A2C C115A,-1.3
18,A2U C11G G48C G120U G128C,-0.718
19,A2G C15G,-3.2
20,A2U C8U C11G,-0.458
21,A2U U54A,-2.36
22,A2C C72A C114G,-4.02
23,A2G G135U,-0.44
24,A2C A5C C64U C114G C124A,-3.6

row,Variant,polymerase ribozyme fitness (log ratio)
1,A2G C70A C123U,-0.0496
2,A2U C12G A95U,-2.91
3,A2U G45A G69U C124A,-0.409
4,A2C U112A G127A,-0.337
5,A2G C11G G42A C89G,-4.87
6,A2G C8G A43G G69C C98A C123A,-7.53
7,A2C C86U,-1.99
8,A2C U130A,-2.07
9,A2G C13A C72U U129G,-2.36
10,A2U C101U,-1.78
11,A2G A41U A46U,-3.37
12,A2C C11U C114G,-4.14
13,A2U G52A C56A C82A A91G A121C,-2.84
14,A2C C4U G10A G57C G61U,-2.37
15,A2U A43C U59A,-5.8
16,A2G C8G U96A G135U,-1.73
17,A2U U21A G36A C56U C114A,-3.98
18,A2U C15A C114U,-6.05
19,A2U A5G U9G A41C,-2.01
20,A2G C70U,-0.43
21,A2G C70A,-1.82
22,A2U A50U C72G,-4.02
23,A2U C56A A83G,-4.24
24,A2G C89G G110U,-4.03

row,Variant,polymerase ribozyme fitness (log ratio)
1,A2U C70U G128C,-2.25
2,A2G U78C,-0.357
3,A2C C8G G48U G71A C101U,-2.14
4,A2G U106G U125G,-2.92
5,A2C C73A,-1.09
6,A2U A5G A18U A43C C56U C85A U126C U129A,-3.94
7,A2U A74U C82U,-3.62
8,A2G A5C C11A G71U C99U,-3.65
9,A2U C3G C79A G113A C124G,-4.18
10,A2G G35U C124A,-4.09
11,A2U G52U,-3.41
12,A2G U87G A95U G110A,-0.979
13,A2C C53G C70G,-5.19
14,A2G C20U G36C C123U,-1.11
15,A2C C101A,-2.7
16,A2C C101U,-1.67
17,A2C C70U A91C C101U U112A U129C,-4.54
18,A2G C88A A100U C115U,-3.59
19,A2C C3U C56G G69U,-4.15
20,A2G C22G A26G A84U G122A U130C,-5.4
21,A2U C4A C13U C123A,1.02
22,A2C G47A G93U,-5.29
23,A2C C98U,-3.19
24,A2U C13U A50G U112C,0.516

row,Variant,polymerase ribozyme fitness (log ratio)
1,A2G C13G C82G U129C,-1.79
2,A2G A6G C8A A46C U87C,-0.00636
3,A2G C20U G60C,-1.66
4,A2G U7C U9C G51U,-2.87
5,A2U C49U G113C,-5.26
6,A2U A100U U116C,-3.73
7,A2U C76U,-1.64
8,A2C G63U A100U U133G,-3.47
9,A2U A5C C13U G48A C70A,-4.35
10,A2U C11U C79A C123A,-0.946
11,A2G G69A,-2.65
12,A2G C88U,-0.191
13,A2U A27U A74C U87A U112A G127U,-2.94
14,A2U C53G C56U G69U,-1.92
15,A2U C15A,-4.12
16,A2C C4A U7C G44A C56G C94U,-1.93
17,A2U A43U C53G C73U U106A,-7.47
18,A2G C56G C89G A90C,-2.84
19,A2U U59C,-2.87
20,A2U C73A G120C,-2.28
21,A2G A41U G120U,-1.2
22,A2G C20G G71C G113C,-3
23,A2G C56G C70G U112A,-3.63
24,A2G G10A C53U C62U A90G,-0.379

row,Variant,polymerase ribozyme fitness (log ratio)
1,A2G C72U A74U C102U U130A,-3.21
2,A2U C64U,-2
3,A2C C13A C22A C49G G63C C123U,-5.96
4,A2C G17A G44C G45A C86U U109A U131C,-7.35
5,A2U A50C C56U G57U A91U C124G G127C G128C,-4.54
6,A2U A50C C56U G57U C62U A91U C124G G127C G128C,-4.5
7,A2G G45A G63U U112A,-0.348
8,A2U A50U C56U,-3.13
9,A2G C8A G63A G110A,-3.11
10,A2G C34A A46G C73A,-2.49
11,A2U U9A C11U A18C C20A C31G G77A A83G C97A G113U C124U,-7.17
12,A2U A37U G42C G93C G120A C123G U130A,-6.65
13,A2C C11A G60A G69U C89G G122A,-3.67
14,A2U G60U C82G,-3.31
15,A2U A37G C76G,-3.35
16,A2G C13U A41C G48C U78G A111G,-1.71
17,A2G C15G G44A C62A A90C C97U G120A,-3.89
18,A2U A16U G45A U87C A121C,-2.88
19,A2G C12U A43U G44U C115U,-2.29
20,A2U C12U C64U,-2.54
21,A2G G63C A74C U87C A100U,-4.51
22,A2G G120C,1.19
23,A2U G44U C70U A90U,-5.08
